Source: patent US20260234209A1

B1: C6-79C_mb7 (designed binder)
chain: MGSSDEEEARELEERAREAAKRAIEAAKRTGDPRVRELAEELVKLAIWAAVEVWLDPSSSDVNEALKLIVEAIEAAVRALEAAERTGDPEVRELARELVRLAVEAAEEVQRNPSSSDVNEALKLIVIAIEAAVRALEAAERTGDPEVRELARELVRLAVEAAEEVQRNPSSEEVNEALRKIIKLILFAVMVLELAEEIGDPTWREMARRAVREAVELAEEVQRDPSGWLGHGSDRRKEMDKVYRTAYKRITSTPDKEKRKEVVKEATEQLRRIAKDEEEKKKAAYMISFLKTLGSLEHHHHHH
B2: C8-71C_mb7 (designed binder)
chain: MEKKIGPEEILERAKESLERAREASERGDEEEFRKAAEKALELAKRLVEQAKKEGDPELVLEAARVALWVAELAAKNGDKEVFKKAAESALEVAKRLVEVASKEGDPDLVAWAALVALWVAFLAFLNGDKEVFKKAAESALEVAKALMEVAMKVGAPWLVELAIAVARAVWLLAELFGDEEVRRRAEAFEIILRIAAIAVKAWLGGGGSDRRKEMDKVYRTAYKRITSTPDKEKRKEVVKEATEQLRRIAKDEEEKKKAAYMISFLKTLGSLEHHHHHH
B3: C2-58-2X_mb7 (designed binder)
chain: MHHHHHHAENLYFQSGSDEELLRELLKLLLKLLEQMGDEEARRVVEELREELEKKGDPRALVLAFALVILVFLLRILRELGDEELVRRVEELWEELLKEGDPQAMMEVFKLVQELQERRGSGSDRRKEMDKVYRTAYKRITSTPDKEKRKEVVKEATEQLRRIAKDEEEKKKAAYMISFLKTLGS
B4: C4-71C_mb7 (designed binder)
chain: MGPEEILERARESLERAREASERGDEEEFRKAAEKALELAKRLVEQAKKEGDPWMVMWAALVALWVALLALRNGDKEVFKKAAESALEVAKRLVEVASKEGDPEMVLLAAWVALFVAWLAWLFGDKEVFKKAAESALEVAKRLVEVASKEGDPELVEEAAKVAEEVEKLAEKQGDEEVREKAWETWMEVWLLWLEVRLRKGGGGSDRRKEMDKVYRTAYKRITSTPDKEKRKEVVKEATEQLRRIAKDEEEKKKAAYMISFLKTLGSLEHHHHHH
B5: C4-71N_mb7 (designed binder)
chain: MGDRRKEMDKVYRTAYKRITSTPDKEKRKEVVKEATEQLRRIAKDEEEKKKAAYMISFLKTLGSPEEILERARESLERAREASERGDEEEFRKAAEKALELAKRLVEQAKKEGDPWMVMWAALVALWVALLALRNGDKEVFKKAAESALEVAKRLVEVASKEGDPEMVLLAAWVALFVAWLAWLFGDKEVFKKAAESALEVAKRLVEVASKEGDPELVEEAAKVAEEVEKLAEKQGDEEVREKAWETWMEVWLLWLEVRLRKGGGGSLEHHHHHH

Biological target: human FGFR1c (human), P11362
Sequence (P11362 22-822): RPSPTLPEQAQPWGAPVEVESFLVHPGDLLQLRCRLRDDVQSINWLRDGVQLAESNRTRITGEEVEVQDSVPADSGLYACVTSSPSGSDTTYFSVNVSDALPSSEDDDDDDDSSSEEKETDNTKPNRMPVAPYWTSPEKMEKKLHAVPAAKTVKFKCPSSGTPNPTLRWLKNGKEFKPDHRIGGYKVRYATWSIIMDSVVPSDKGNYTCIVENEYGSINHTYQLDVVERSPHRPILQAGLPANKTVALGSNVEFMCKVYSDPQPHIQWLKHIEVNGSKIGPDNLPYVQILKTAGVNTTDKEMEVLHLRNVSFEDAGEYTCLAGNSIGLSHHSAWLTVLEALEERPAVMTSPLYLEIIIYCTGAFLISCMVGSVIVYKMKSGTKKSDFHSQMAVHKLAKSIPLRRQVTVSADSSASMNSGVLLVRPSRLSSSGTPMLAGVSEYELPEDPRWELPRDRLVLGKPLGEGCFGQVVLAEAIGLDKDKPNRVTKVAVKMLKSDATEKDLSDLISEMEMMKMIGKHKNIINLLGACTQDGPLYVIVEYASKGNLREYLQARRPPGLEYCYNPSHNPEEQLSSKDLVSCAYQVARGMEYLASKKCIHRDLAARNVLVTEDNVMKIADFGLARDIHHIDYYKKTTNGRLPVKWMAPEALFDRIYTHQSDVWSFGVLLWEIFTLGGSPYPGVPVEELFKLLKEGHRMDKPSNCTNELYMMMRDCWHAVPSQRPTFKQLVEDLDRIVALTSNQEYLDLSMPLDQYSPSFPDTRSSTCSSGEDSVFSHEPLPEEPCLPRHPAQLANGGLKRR
Experiment: cell-based or functional assay

Row | Binder | EC50 of ERK1/2 phosphorylation (phosphoflow) in CHO-R1c cells [nM] | EC50 of intracellular calcium release in CHO-R1c cells [nM] | EC50 of ERK phosphorylation (phosphoflow), C4-71N mb7 extension series [nM]
1 | B1 | 1.56 | 0.38 | 
2 | B2 | 2.07 | 3.09 | 
3 | B3 | 0.63 | 26 | 
4 | B4 | 1.33 | 0.72 | 
5 | B5 | 0.89 |  | 1.3
